Results on 2 molecules are retold here after patent US9827288B2, “Method for treating a refractory or relapsed lung cancer” (MYCOMAGIC BIOTECHNOLOGY CO., LTD., priority 2015, dated 2017).

Assay [1] deals with EGFR. As to the kind of experiment: Western blot of EGFR level in H1975 cells. It is filed as cell-based, human. As to the method:
Knocking down of EGFR by EGFR siRNA activated activity of caspase3/7, resulting in apoptosis in gefitinib-resistant H1975 cells (Chen G et al., BMC Med. 2012; 10:28). To investigate the apoptosis, human H1975 cells were seed in 60-mm plat-dish and incubated with rLZ-8 (5 μg/ml) and GMI (10 μg/ml) for 48 hours and 72 hours, respectively.
Background: Immunoblotting shows a protein as a band on a membrane.

In assay [2] the target is T1, EGFR (Homo sapiens, UniProt P00533). As to the kind of experiment: Western blotting to detect expression of EGFR in CL1-5 and H226 cells. It is filed as cell-based. Also on record: endogenous in cells; host or cells: CL1-5 and H226 cells. To be noted: 5 μg/ml for CL1-5 and 10 μg/ml for H226, 0-12 h. How it is done: CL1-5 and H226 cells were incubated with rLZ-8 and GMI (5 μg/ml for CL1-5 and 10 μg/ml for H226) for 0-12 h followed by western blotting to detect expression of EGFR. […] The regulatory mechanisms of ligand-induced EGFR degradation dependent on endocytosis (Hicke L., FASEB J. 1997; 11:1215-26.). To investigate whether rLZ-8-induced EGFR degradation by inducing endocytosis, we performed depletion of clathrin heavy chain experiments in NSCLC cells. Using clathrin heavy chain shRNAs such as #2755 (sh-S1), #2757 (sh-S2) and #7981 (sh-S3), we confirm the efficacy of clathrin shRNAs, and we found (via Western blot analysis) that clathrin knockdown leads to a reduction in the overall protein levels of clathrin in CL1-5 and H226 cells (FIG. 4B). Next, we examined whether the rLZ-8-induced EGFR degradation dependent on clathrin-mediated endocytosis in NSCLC cells.

The target in assay [3] is T1, EGFR. Description: Immunoprecipitation assay with anti-EGFR and anti-his-tag antibody. It is filed as binding. The arrangement: After treatment of rLZ-8 in A549; endogenous in cells; host or cells: A549 cells. To be noted: A549 cells treated with rLZ-8. As to the method: (§1) Science the downregulation of EGFR by rLZ-8 and GMI may involve an intracellular pathway similar to that induced by EGF-mediated EGFR endocytosis and degradation, we hypothesized that rLZ-8 and GMI could interact with EGFR. The co-locolization of rLZ-8/GMI and EGFR were determined by fluorescence microscopy. […] To further examine the association of rLZ-8 and EGFR, immunoprecipitation assay was performed by anti-EGFR and anti-his-tag (for detecting rLZ-8) antibody.

A further assay has as its system LLC1 cells. As to the kind of experiment: Tumor growth in LLC1 allograft mice. The following applies: vs PBS. It is filed as in vivo. How it is done: Male C57BL/6 (6-8 weeks of age) mice were subcutaneously inoculated with LLC1 cells and randomly divided into two groups. Seven days after implantation, the mice were treated with GMI (5 mg/kg) via i.p. injections at intervals of 4 days. The control group received an equal volume of sterile PBS.
The mice will be weighed and randomly distributed across the different experimental groups (n=5). At day 0, approximately 2×10^5 lung cancer cells suspended in 100 μl serum free DMEM will be subcutaneously (s.c.) implanted into the right flank of all mice for easy observed detection. The mice were sacrificed on the 25th day and the tumors were then excised. […] Tumor size was measured (FIG. 1A) for each mouse using a set of digital calipers at 4 days, and the tumor volume was calculated by the formula L1×L2×H, where L1 is long diameter, L2 is the short diameter and H is the height of the tumor. Representative images of the tumors on the 25th day (FIG. 1B).
We further examined the effect of rLZ-8 on mice with LLC1-allograft in vivo. LLC1 cells were subcutaneously injected into male C57BL6 mice, and the tumor growth rate was assessed over 17 days.

Assay [4] addresses T1, EGFR. Description: Co-localization with EGFR by fluorescence microscopy. Also on record: endogenous in cells; host or cells: CL1-5 and H226 cells. The following applies: H226 cells. It is filed as cell-based. As to the method: as §1

B1: rLZ-8: his-tagged recombinant fungal immunomodulatory protein LZ-8 from Ganoderma lucidum (SEQ ID NO:5) (protein, listed as Ganoderma lucidum)
chain: MSDTALIFRLAWDVKKLSFDYTPNWGRGNPNNFIDTVTTFPKVLTDKAYTYRVAVSGRNLGVKPSYAVESDGSQKVNFLEYNSGYGIADTNTIQVFVVDPDTNNDFIIAQWN
modifications: His tag
Turning to B1, in the assay with EGFR [1] (rLZ-8 5 μg/ml, 48 hours), the EGFR level entry is “induced downregulation of EGFR level”. In the assay with EGFR [2], the EGFR protein levels entry is reported as “significantly suppressed the EGFR protein levels”. Besides, the “association with EGFR (immunoprecipitation)” value in the assay with EGFR [3] was “present in the immunoprecipitants obtained by the anti-EGFR antibody”. The tumor volume entry with LLC1 cells (LLC1-bearing male C57BL6 mice, rLZ-8 7.5 mg/kg, over 17 days) is “significantly decreases tumor volume”. Also, the tumor weight result with LLC1 cells (LLC1-bearing male C57BL6 mice, rLZ-8 7.5 mg/kg) is “significantly decreases”. The “co-localization with EGFR” value with EGFR [4] was “mainly co-localized on the plasma membrane and formed the punctuate intracellular clusters in the cytoplasm”.

B2: GMI: recombinant immunomodulatory protein derived from Ganoderma microsporum, manufactured by Mycomagic Biotechnology per U.S. Pat. No. 7,601,808 (protein)
chain: EAEAEFMSDTALIFTLAWNVKQLAFDYTPNWGRGRPSSFIDTVTFPTVLTDKAYTYRVVVSGKDLGVRPSYAVESDGSQKINFLEYNSGYGIADTNTIQVYVIDPDTGNNFIVAQWNYLEQKLISEEDLNSAVDHHHHHH
modifications: Ganoderma microsporum (GMI) or a recombinant thereof (reGMI)
On to B2, for which the EGFR level result with EGFR [1] (GMI 10 μg/ml, 72 hours) was “induced downregulation of EGFR level”. In addition, in the assay with EGFR [2], the EGFR protein levels result is reported as “significantly suppressed the EGFR protein levels”. In the assay on LLC1 cells (LLC1-bearing male C57BL/6 mice, GMI 5 mg/kg i.p. at intervals of 4 days from day 7, to 25th day), the tumor volume result is “significantly decreases tumor volume”.
